According to PMC13278974, “Nucleophagy removes cytotoxic trapped PARP1” (Nature Cell Biology, 2026):
Values belong to the binder of their own block, whether it stands above or below them.

Target: T1, His–PARP1, full length, recombinant (called GFP-PARP1 / PARP1–GFP in the results and legend) (UniProt P09874 1-1014)
T1 construct: PARP1, full length, cloned into NcoI and BamHI sites of pNIC28; The methods describe only His–PARP1 from pNIC28 with no GFP; Whether GFP was on the protein is open; It was held on PARP1-trap beads; also called pNIC28–PARP1; source: E. coli Rosetta (DE3), purified (HisTrap, SEC Superdex 200)
T1 sequence (P09874 whole entry): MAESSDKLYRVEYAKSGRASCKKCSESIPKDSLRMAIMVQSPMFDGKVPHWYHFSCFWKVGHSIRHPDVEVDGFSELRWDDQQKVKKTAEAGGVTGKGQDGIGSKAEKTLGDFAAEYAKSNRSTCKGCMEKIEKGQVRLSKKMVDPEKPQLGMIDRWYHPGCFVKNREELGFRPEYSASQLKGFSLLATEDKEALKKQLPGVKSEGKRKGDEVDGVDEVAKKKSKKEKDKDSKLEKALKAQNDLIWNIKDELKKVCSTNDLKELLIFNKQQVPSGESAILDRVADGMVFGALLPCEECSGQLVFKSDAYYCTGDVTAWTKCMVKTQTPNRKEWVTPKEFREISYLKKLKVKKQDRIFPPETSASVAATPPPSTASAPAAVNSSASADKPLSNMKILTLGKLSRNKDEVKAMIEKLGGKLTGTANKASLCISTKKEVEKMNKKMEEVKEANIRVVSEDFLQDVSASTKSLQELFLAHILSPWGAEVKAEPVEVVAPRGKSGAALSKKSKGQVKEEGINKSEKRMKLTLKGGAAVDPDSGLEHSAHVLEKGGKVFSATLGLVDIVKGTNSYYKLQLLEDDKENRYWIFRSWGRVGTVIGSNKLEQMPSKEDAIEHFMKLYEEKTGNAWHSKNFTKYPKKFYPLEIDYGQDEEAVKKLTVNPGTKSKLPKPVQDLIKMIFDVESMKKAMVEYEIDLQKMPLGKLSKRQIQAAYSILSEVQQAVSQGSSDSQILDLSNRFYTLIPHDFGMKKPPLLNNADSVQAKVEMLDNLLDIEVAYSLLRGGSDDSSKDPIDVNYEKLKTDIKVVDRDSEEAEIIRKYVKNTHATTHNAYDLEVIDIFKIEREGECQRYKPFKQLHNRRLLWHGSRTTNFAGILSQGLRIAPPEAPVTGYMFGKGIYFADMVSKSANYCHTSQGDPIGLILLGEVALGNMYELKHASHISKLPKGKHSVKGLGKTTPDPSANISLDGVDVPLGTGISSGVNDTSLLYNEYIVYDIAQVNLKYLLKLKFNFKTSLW
Assay: pull-down; PARP1 (2.5 µM) held on PARP1-trap beads, TEX264 (2.5 µM) added in 50 mM HEPES pH 7.4, 500 mM NaCl, 0.01% Triton X-100, 1 mM TCEP, 2 h at 4 °C; washes with 0.1% Triton X-100; western blot
Conditions: both partners purified

- binding result: binds
B1: His–TEX264–Cter (186-313) (domain or fragment, UniProt Q9Y6I9 186-313, looked up)
chain: RQGDFYVPEMKETEWKWRGLVEAIDTQVDGTGADTMSDTSSVSLEVSPGSRETSAATLSPGASSRGWDDGDTRSEHSYSESGASGSSFEELDLEGEGPLGESRLDPGTEPLGTTKWLWEPTAPEKGKE
notes: also called C-terminal half of TEX264; variant 2

- binding result: binds
B2: His–TEX264 (34-313) (domain or fragment, UniProt Q9Y6I9 34-313, looked up)
chain: VEVSAGSPPIRNVTVAYKFHMGLYGETGRLFTESCSISPKLRSIAVYYDNPHMVPPDKCRCAVGSILSEGEESPSPELIDLYQKFGFKVFSFPAPSHVVTATFPYTTILSIWLATRRVHPALDTYIKERKLCAYPRLEIYQEDQIHFMCPLARQGDFYVPEMKETEWKWRGLVEAIDTQVDGTGADTMSDTSSVSLEVSPGSRETSAATLSPGASSRGWDDGDTRSEHSYSESGASGSSFEELDLEGEGPLGESRLDPGTEPLGTTKWLWEPTAPEKGKE
notes: the printed UniProt entry Q9Y6I9 is the human protein; The longest recombinant TEX264 described in the methods; also called TEX264^WT (variant 1); source: E. coli Rosetta (DE3), pCold cold shock system, purified (HiTrap Q FF, SEC Superdex 200)
